Protein stability index data for 94 variants are collected here from the supplement of paper PMC10567573.

To fix the notation:
B1: ZNF8 (parent)
chain: RIHTGERPYMCKECGKAFSQNSSL
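Further: lentivirally expressed fusions sorted by FACS into six bins by GFP to DsRed ratio, PSI derived from sequencing read proportions per bin multiplied by bin number.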

This data set covers variants of B1. As to the kind of experiment: protein stability index of a GFP-peptide fusion (GPS, HEK-293T) (PSI 1-6); higher = more stable. As to conditions: c terminus: a fixed tail appended.
As for RIHTGERPYMCEECGKAFSQNSSL, the protein stability index was determined as 2.9.

With RIHTGERPYMCAECGKAFSQNSSL, the protein stability index turned out to be 3.12.

Turning to RIHTGERPYMCYECGKAFSQNSSL, the protein stability index turned out to be 2.27.

As for RIHTGERPYMCRECGKAFSQNSSL, the protein stability index amounted to 1.99.

As for RIHTGERPYMCQECGKAFSQNSSL, the protein stability index worked out at 2.11.

On to RIHTGERPYMCPECGKAFSQNSSL, for which the protein stability index worked out at 2.54.

On to RIHTGERPYMCSECGKAFSQNSSL, for which the protein stability index amounted to 2.46.

With RIHTGERPYMCDECGKAFSQNSSL, the protein stability index was determined as 3.02.

As to RIHTGERPYMCFECGKAFSQNSSL, the protein stability index was found to be 1.8.

Consider RIHTGERPYMCTECGKAFSQNSSL, for which the protein stability index was 2.15.

As for RIHTGERPYMCIECGKAFSQNSSL, the protein stability index was 2.17.

As for RIHTGERPYMCCECGKAFSQNSSL, the protein stability index was 2.16.

Turning to RIHTGERPYMCLECGKAFSQNSSL, the protein stability index was found to be 1.72.

As for RIHTGERPYMCNECGKAFSQNSSL, the protein stability index came to 2.66.

Consider RIHTGERPYMCWECGKAFSQNSSL, for which the protein stability index was determined as 1.51.

Regarding RIHTGERPYMCVECGKAFSQNSSL, the protein stability index was 2.07.

Regarding RIHTGERPYMCGECGKAFSQNSSL, the protein stability index stood at 2.38.

Turning to RIHTGERPYMCHECGKAFSQNSSL, the protein stability index was determined as 1.96.

With RIHTGERPYMCMECGKAFSQNSSL, the protein stability index turned out to be 2.52.

Turning to RIHTGERPYMCKEAGKAFSQNSSL, the protein stability index worked out at 3.1.

For the variant RIHTGERPYMCKETGKAFSQNSSL, the protein stability index is 2.81.

RIHTGERPYMCKEIGKAFSQNSSL: the protein stability index came to 1.93.

In the case of RIHTGERPYMCKEEGKAFSQNSSL, the protein stability index was found to be 3.07.

For the variant RIHTGERPYMCKEPGKAFSQNSSL, the protein stability index worked out at 2.99.

Take RIHTGERPYMCKELGKAFSQNSSL: the protein stability index was 2.42.

Take RIHTGERPYMCKEGGKAFSQNSSL: the protein stability index is 3.18.

In the case of RIHTGERPYMCKEMGKAFSQNSSL, the protein stability index came to 2.29.

As for RIHTGERPYMCKEKGKAFSQNSSL, the protein stability index worked out at 3.58.

Consider RIHTGERPYMCKERGKAFSQNSSL, for which the protein stability index was 2.51.

Take RIHTGERPYMCKENGKAFSQNSSL: the protein stability index worked out at 3.15.

For RIHTGERPYMCKEWGKAFSQNSSL, the protein stability index came to 2.12.

With RIHTGERPYMCKEQGKAFSQNSSL, the protein stability index was determined as 3.

In the case of RIHTGERPYMCKEYGKAFSQNSSL, the protein stability index came to 2.2.

Regarding RIHTGERPYMCKEFGKAFSQNSSL, the protein stability index is 2.65.

In the case of RIHTGERPYMCKESGKAFSQNSSL, the protein stability index came to 2.74.

In the case of RIHTGERPYMCKEHGKAFSQNSSL, the protein stability index was 2.5.

Take RIHTGERPYMCKEDGKAFSQNSSL: the protein stability index stood at 3.48.

As for RIHTGERPYMCKEVGKAFSQNSSL, the protein stability index worked out at 2.72.

Turning to RIHTGERPYMCKECNKAFSQNSSL, the protein stability index turned out to be 2.33.

As for RIHTGERPYMCKECVKAFSQNSSL, the protein stability index worked out at 2.33.

Turning to RIHTGERPYMCKECRKAFSQNSSL, the protein stability index turned out to be 2.76.

As to RIHTGERPYMCKECSKAFSQNSSL, the protein stability index came to 3.2.

With RIHTGERPYMCKECQKAFSQNSSL, the protein stability index stood at 3.26.

Take RIHTGERPYMCKECIKAFSQNSSL: the protein stability index amounted to 1.98.

On to RIHTGERPYMCKECHKAFSQNSSL, for which the protein stability index was found to be 2.32.

As for RIHTGERPYMCKECKKAFSQNSSL, the protein stability index was found to be 2.99.

As to RIHTGERPYMCKECTKAFSQNSSL, the protein stability index turned out to be 3.05.

Consider RIHTGERPYMCKECCKAFSQNSSL, for which the protein stability index came out at 2.16.

Turning to RIHTGERPYMCKECPKAFSQNSSL, the protein stability index was determined as 2.54.

For RIHTGERPYMCKECEKAFSQNSSL, the protein stability index came out at 3.46.

On to RIHTGERPYMCKECLKAFSQNSSL, for which the protein stability index is 3.05.

In the case of RIHTGERPYMCKECFKAFSQNSSL, the protein stability index was found to be 2.09.

In the case of RIHTGERPYMCKECMKAFSQNSSL, the protein stability index was 2.67.

For RIHTGERPYMCKECAKAFSQNSSL, the protein stability index is 3.37.

As for RIHTGERPYMCKECDKAFSQNSSL, the protein stability index was found to be 3.25.

RIHTGERPYMCKECYKAFSQNSSL: the protein stability index amounted to 1.62.

As to RIHTGERPYMCKECGFAFSQNSSL, the protein stability index was 2.52.

With RIHTGERPYMCKECGGAFSQNSSL, the protein stability index worked out at 2.41.

Turning to RIHTGERPYMCKECGEAFSQNSSL, the protein stability index worked out at 2.97.

In the case of RIHTGERPYMCKECGDAFSQNSSL, the protein stability index worked out at 2.52.

With RIHTGERPYMCKECGHAFSQNSSL, the protein stability index was 2.29.

As to RIHTGERPYMCKECGLAFSQNSSL, the protein stability index was determined as 1.71.

Turning to RIHTGERPYMCKECGAAFSQNSSL, the protein stability index turned out to be 2.24.

Regarding RIHTGERPYMCKECGIAFSQNSSL, the protein stability index was 2.08.

Regarding RIHTGERPYMCKECGCAFSQNSSL, the protein stability index is 1.82.

For the variant RIHTGERPYMCKDCGKAFSQNSSL, the protein stability index came to 1.39.

For RIHTGERPYMCKRCGKAFSQNSSL, the protein stability index is 1.87.

As to RIHTGERPYMCKHCGKAFSQNSSL, the protein stability index was determined as 2.14.

Turning to RIHTGERPYMCKACGKAFSQNSSL, the protein stability index was 2.08.

With RIHTGERPYMCKNCGKAFSQNSSL, the protein stability index is 2.35.

On to RIHTGERPYMCKICGKAFSQNSSL, for which the protein stability index worked out at 1.88.

Take RIHTGERPYMCKQCGKAFSQNSSL: the protein stability index is 2.24.

Turning to RIHTGERPYMCKSCGKAFSQNSSL, the protein stability index worked out at 1.95.

As for RIHTGERPYMCKMCGKAFSQNSSL, the protein stability index is 2.05.

For RIHTGERPYMCKFCGKAFSQNSSL, the protein stability index was 1.59.

On to RIHTGERPYMCKCCGKAFSQNSSL, for which the protein stability index was 1.85.

In the case of RIHTGERPYMCKPCGKAFSQNSSL, the protein stability index came to 2.07.

With RIHTGERPYMCKVCGKAFSQNSSL, the protein stability index was found to be 2.1.

For RIHTGERPYMCKTCGKAFSQNSSL, the protein stability index worked out at 1.96.

Regarding RIHTGERPYMCKYCGKAFSQNSSL, the protein stability index amounted to 1.92.

As to RIHTGERPYMCKKCGKAFSQNSSL, the protein stability index came to 1.78.

Consider RIHTGERPYMCKGCGKAFSQNSSL, for which the protein stability index was determined as 1.94.

For RIHTGERPYMCKLCGKAFSQNSSL, the protein stability index turned out to be 2.3.

For RIHTGERPYMQKECGKAFSQNSSL, the protein stability index came out at 3.04.

With RIHTGERPYMTKECGKAFSQNSSL, the protein stability index was 2.48.

In the case of RIHTGERPYMMKECGKAFSQNSSL, the protein stability index turned out to be 2.82.

As for RIHTGERPYMVKECGKAFSQNSSL, the protein stability index was 2.72.

With RIHTGERPYMRKECGKAFSQNSSL, the protein stability index came out at 2.67.

RIHTGERPYMYKECGKAFSQNSSL: the protein stability index is 2.28.

For the variant RIHTGERPYMSKECGKAFSQNSSL, the protein stability index came out at 2.99.

As for RIHTGERPYMNKECGKAFSQNSSL, the protein stability index came to 2.81.

Turning to RIHTGERPYMLKECGKAFSQNSSL, the protein stability index is 2.68.

As to RIHTGERPYMPKECGKAFSQNSSL, the protein stability index stood at 2.84.

Regarding RIHTGERPYMWKECGKAFSQNSSL, the protein stability index came to 1.98.
